Measured values as given in patent US20070065878A1.

Assays:
[1] = target: T1, B09 (TEV substrate clone, 5X library)
T1 chain: LEQLI

[2] = target: T2, G06 (TEV substrate clone, 5X library)
T2 chain: SEDLW

[3] = target: T3, A4 (TEVopt library clone)
T3 chain: VLYLQS

[4] = target: T4, G02 (TEV substrate clone, 5X library)
T4 chain: GEAGF

[5] = target: T5, C3 (TEVopt library clone)
T5 chain: DLYWQG

[6] = target: T6, F04 (TEV substrate clone, 5X library)
T6 chain: DRELY

[7] = target: T7, E6 (TEVopt library clone)
T7 chain: VLYTQG

[8] = target: T8, H07 (TEV substrate clone, 5X library)
T8 chain: EEAVL

[9] = target: T9, D10 (TEV substrate clone, 5X library)
T9 chain: LYFQG

[10] = target: T10, D04 (TEV substrate clone, 5X library)
T10 chain: GEALF

[11] = target: T11, G03 (TEV substrate clone, 5X library)
T11 chain: GDMGY

[12] = target: T12, C5 (TEVopt library clone)
T12 chain: ELYAQG

[13] = target: T13, H06 (TEV substrate clone, 5X library)
T13 chain: EEELW

[14] = target: T14, A06 (TEV substrate clone, 5X library)
T14 chain: FEDGL

[15] = target: T15, F07 (TEV substrate clone, 5X library)
T15 chain: EENLG

[16] = target: T16, H08 (TEV substrate clone, 5X library)
T16 chain: WEPLW

[17] = target: T17, D01 (TEV substrate clone, 5X library; as in Table 6)
T17 chain: GEVLW

[18] = target: T18, D05 (TEV substrate clone, 5X library)
T18 chain: GEAGV

[19] = target: Control (TEV substrate ENLYFQS)
[20] = target: T19, C11 (TEV substrate clone, 5X library)
T19 chain: DGALY

[21] = target: T20, B02 (TEV substrate clone, 5X library)
T20 chain: EEELY

[22] = target: T21, E4 (TEVopt library clone)
T21 chain: SLYVQG

[23] = target: T22, E09 (TEV substrate clone, 5X library)
T22 chain: SEPLR

[24] = target: T23, D11 (TEV substrate clone, 5X library)
T23 chain: GEHVY

[25] = target: T24, C10 (TEV substrate clone, 5X library)
T24 chain: PEVIY

[26] = target: T25, C4 (TEVopt library clone)
T25 chain: ELYWQG

[27] = target: T26, F11 (TEV substrate clone, 5X library)
T26 chain: GEPLW

[28] = target: T27, G08 (TEV substrate clone, 5X library)
T27 chain: MEWLW

[29] = target: T28, D1 (TEVopt library clone)
T28 chain: WLYLQG

[30] = target: T29, B07 (TEV substrate clone, 5X library)
T29 chain: MEEVY

[31] = target: T30, C09 (TEV substrate clone, 5X library)
T30 chain: RELVY

[32] = target: T31, H04 (TEV substrate clone, 5X library)
T31 chain: MEDLM

[33] = target: T32, E05 (TEV substrate clone, 5X library)
T32 chain: RDDGY

[34] = target: T33, F02 (TEV substrate clone, 5X library)
T33 chain: EEYLW

[35] = target: D03 (TEV substrate clone, 5X library)
[36] = target: T34, B6 (TEVopt library clone)
T34 chain: EVYVQG

[37] = target: T35, D4 (TEVopt library clone)
T35 chain: LLYIQG

[38] = target: T36, G05 (TEV substrate clone, 5X library)
T36 chain: LRELW

[39] = target: T37, D08 (TEV substrate clone, 5X library)
T37 chain: LEWLK

[40] = target: T38, D01 (TEV substrate clone, 5X library; as in Table 5A)
T38 chain: DVQLY

[41] = target: T39, A3 (TEVopt library clone)
T39 chain: ALYIQG

[42] = target: T40, H09 (TEV substrate clone, 5X library)
T40 chain: GEALF

[43] = target: T41, F05 (TEV substrate clone, 5X library)
T41 chain: DRELY

[44] = target: T42, C6 (TEVopt library clone)
T42 chain: QLYFQS

[45] = target: E03 (TEV substrate clone, 5X library)
[46] = target: T43, C04 (TEV substrate clone, 5X library)
T43 chain: RRMAE

[47] = target: T44, F03 (TEV substrate clone, 5X library)
T44 chain: LESLV

[48] = target: T45, A05 (TEV substrate clone, 5X library)
T45 chain: FEDLL

[49] = target: T46, E11 (TEV substrate clone, 5X library)
T46 chain: WESLY

[50] = target: T47, F09 (TEV substrate clone, 5X library)
T47 chain: GEDLL

[51] = target: T48, E07 (TEV substrate clone, 5X library)
T48 chain: ETILY

[52] = target: T49, D5 (TEVopt library clone)
T49 chain: SLYWQG

[53] = target: T50, A1 (TEVopt library clone)
T50 chain: FLYLQG

[54] = target: T51, H03 (TEV substrate clone, 5X library)
T51 chain: ARQIR

[55] = target: T52, C07 (TEV substrate clone, 5X library)
T52 chain: VEPIY

[56] = target: T53, C05 (TEV substrate clone, 5X library)
T53 chain: REVGY

[57] = target: T54, D02 (TEV substrate clone, 5X library)
T54 chain: DSELY

[58] = target: T55, B11 (TEV substrate clone, 5X library)
T55 chain: GETVY

[59] = target: T56, E01 (TEV substrate clone, 5X library)
T56 chain: EEYLW

[60] = target: T57, H11 (TEV substrate clone, 5X library)
T57 chain: AEWGR

[61] = target: T58, D09 (TEV substrate clone, 5X library)
T58 chain: MEMLR

[62] = target: T59, D07 (TEV substrate clone, 5X library)
T59 chain: REVLY

[63] = target: T60, A2 (TEVopt library clone)
T60 chain: DVYVQG
Wherever % Conversion is given: test concentration or dose not given here.
Wherever Conversion (group heading of the table) is given: test concentration or dose not given here.
Wherever Fl (fluorescence without TEV) is given: unit not given here.
Wherever Fl after TEV is given: unit not given here.

B1: tobacco etch virus protease (protein)
chain: GESLFKGPRDYNPISSTICHLTNESDGHTTSLYGIGFGPFIITNKHLFRRNNGTLLVQSLHGVFKVKNTTTLQQHLIDGRDMIIIRMPKDFPPFPQKLKFREPQREERICLVTTNFQTKSMSSMVSDTSCTFPSSDGIFWKHWIQTKDGQCGSPLVSTRDGFIVGIHSASNFTNTNNYFTSVPKNFMELLTNQEAQQWVSGWRLNADSVLWGGHKVFMSKPEEPFQPVKEATQLMNELVYSQ
% Conversion (fraction (head says % Conversion)) [1]: 0.76 | Conversion (group heading of the table) [1]: 60%-90% Conversion | Fl (fluorescence without TEV) [1]: 3250 | Fl after TEV [1]: 980 | Conversion (group heading of the table) [2]: 60%-90% Conversion | % Conversion (fraction (head says % Conversion)) [3]: 0.854 | Conversion (group heading of the table) [4]: 30%-50% conversion | % Conversion (fraction (head says % Conversion)) [5]: 0.734 | % Conversion (fraction (head says % Conversion)) [6]: 0.79 | Conversion (group heading of the table) [6]: 60%-90% Conversion | Fl (fluorescence without TEV) [6]: 5910 | Fl after TEV [6]: 1420 | % Conversion (fraction (head says % Conversion)) [7]: 0.549 | % Conversion (fraction (head says % Conversion)) [8]: 0.71 | Conversion (group heading of the table) [8]: 60%-90% Conversion | Fl (fluorescence without TEV) [8]: 2990 | Fl after TEV [8]: 1040 | Conversion (group heading of the table) [9]: 60%-90% Conversion | Conversion (group heading of the table) [10]: 50%-60% Conversion | Conversion (group heading of the table) [11]: 30%-50% conversion | % Conversion (fraction (head says % Conversion)) [12]: 0.588 | Conversion (group heading of the table) [13]: 60%-90% Conversion | Conversion (group heading of the table) [14]: 30%-50% conversion | Conversion (group heading of the table) [15]: 50%-60% Conversion | % Conversion (fraction (head says % Conversion)) [16]: 0.73 | Conversion (group heading of the table) [16]: 60%-90% Conversion | Fl (fluorescence without TEV) [16]: 3970 | Fl after TEV [16]: 1250 | % Conversion (fraction (head says % Conversion)) [17]: 0.87 | Fl (fluorescence without TEV) [17]: 3840 | Fl after TEV [17]: 725 | Conversion (group heading of the table) [18]: 30%-50% conversion | % Conversion (fraction (head says % Conversion)) [19]: 0.664 | Conversion (group heading of the table) [20]: 50%-60% Conversion | % Conversion (fraction (head says % Conversion)) [21]: 0.72 | Conversion (group heading of the table) [21]: 60%-90% Conversion | Fl (fluorescence without TEV) [21]: 3270 | Fl after TEV [21]: 1080 | % Conversion (fraction (head says % Conversion)) [22]: 0.863 | Conversion (group heading of the table) [23]: 60%-90% Conversion | Conversion (group heading of the table) [24]: 60%-90% Conversion | % Conversion (fraction (head says % Conversion)) [25]: 0.81 | Conversion (group heading of the table) [25]: 60%-90% Conversion | Fl (fluorescence without TEV) [25]: 6110 | Fl after TEV [25]: 1380 | % Conversion (fraction (head says % Conversion)) [26]: 0.689 | Conversion (group heading of the table) [27]: 50%-60% Conversion | Conversion (group heading of the table) [28]: 60%-90% Conversion | % Conversion (fraction (head says % Conversion)) [29]: 0.68 | Conversion (group heading of the table) [30]: 50%-60% Conversion | Conversion (group heading of the table) [31]: 30%-50% conversion | Conversion (group heading of the table) [32]: 50%-60% Conversion | Conversion (group heading of the table) [33]: 30%-50% conversion | Conversion (group heading of the table) [34]: 30%-50% conversion | Conversion (group heading of the table) [35]: 60%-90% Conversion | % Conversion (fraction (head says % Conversion)) [36]: 0.61 | % Conversion (fraction (head says % Conversion)) [37]: 0.517 | Conversion (group heading of the table) [38]: 60%-90% Conversion | Conversion (group heading of the table) [39]: 60%-90% Conversion | Conversion (group heading of the table) [40]: 60%-90% Conversion | % Conversion (fraction (head says % Conversion)) [41]: 0.922 | Conversion (group heading of the table) [42]: 60%-90% Conversion | Conversion (group heading of the table) [43]: 50%-60% Conversion | % Conversion (fraction (head says % Conversion)) [44]: 0.618 | Conversion (group heading of the table) [45]: 60%-90% Conversion | Conversion (group heading of the table) [46]: 60%-90% Conversion | Conversion (group heading of the table) [47]: 60%-90% Conversion | Conversion (group heading of the table) [48]: 50%-60% Conversion | % Conversion (fraction (head says % Conversion)) [49]: 0.77 | Conversion (group heading of the table) [49]: 60%-90% Conversion | Fl (fluorescence without TEV) [49]: 5050 | Fl after TEV [49]: 1360 | % Conversion (fraction (head says % Conversion)) [50]: 0.71 | Conversion (group heading of the table) [50]: 60%-90% Conversion | Fl (fluorescence without TEV) [50]: 4810 | Fl after TEV [50]: 1550 | Conversion (group heading of the table) [51]: 50%-60% Conversion | % Conversion (fraction (head says % Conversion)) [52]: 0.717 | % Conversion (fraction (head says % Conversion)) [53]: 0.918 | Conversion (group heading of the table) [54]: 30%-50% conversion | Conversion (group heading of the table) [55]: 30%-50% conversion | Conversion (group heading of the table) [56]: 30%-50% conversion | Conversion (group heading of the table) [57]: 60%-90% Conversion | Conversion (group heading of the table) [58]: 30%-50% conversion | Conversion (group heading of the table) [59]: 50%-60% Conversion | Conversion (group heading of the table) [60]: 30%-50% conversion | Conversion (group heading of the table) [61]: 60%-90% Conversion | Conversion (group heading of the table) [62]: 60%-90% Conversion | % Conversion (fraction (head says % Conversion)) [63]: 0.526
